Test results published in paper PMC9482650, “Quantitative fragmentomics allow affinity mapping of interactomes” (Nature Communications, 2022).

Assays:
Experiment in all cases: holdup assay
Design in all cases: key: below the threshold = too weak to quantify, mostly under pKd 3.1 to 4
[1] = molecular target: T1, ARHGEF11, O15085
T1 sequence (O15085 42-136, limits assumed, looked up): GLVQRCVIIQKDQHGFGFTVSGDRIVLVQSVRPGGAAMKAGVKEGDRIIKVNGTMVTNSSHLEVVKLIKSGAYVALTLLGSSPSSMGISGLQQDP

[2] = molecular target: CASK, O14936
Sequence of CASK, O14936 (O14936 487-570): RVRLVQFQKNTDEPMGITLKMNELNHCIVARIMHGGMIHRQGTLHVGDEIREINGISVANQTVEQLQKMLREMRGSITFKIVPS

[3] = molecular target: T2, DFNB31_1, Q9P202
T2 sequence (Q9P202 135-233, limits assumed, looked up): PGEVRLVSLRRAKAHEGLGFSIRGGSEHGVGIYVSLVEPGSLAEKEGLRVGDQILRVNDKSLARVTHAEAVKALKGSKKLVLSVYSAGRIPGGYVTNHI

[4] = molecular target: T3, DFNB31_2, Q9P202
T3 sequence (Q9P202 274-371, limits assumed, looked up): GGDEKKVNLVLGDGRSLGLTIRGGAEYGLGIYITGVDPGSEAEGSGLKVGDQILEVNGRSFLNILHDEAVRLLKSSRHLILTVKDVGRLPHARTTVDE

[5] = molecular target: DLG1_2, Q12959
Sequence of DLG1_2, Q12959 (Q12959 314-412): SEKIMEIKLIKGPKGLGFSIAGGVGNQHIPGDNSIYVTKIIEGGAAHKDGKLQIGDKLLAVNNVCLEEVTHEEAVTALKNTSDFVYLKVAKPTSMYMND

[6] = molecular target: DLG5_1, Q8TDM6
Sequence of DLG5_1, Q8TDM6 (Q8TDM6 617-713): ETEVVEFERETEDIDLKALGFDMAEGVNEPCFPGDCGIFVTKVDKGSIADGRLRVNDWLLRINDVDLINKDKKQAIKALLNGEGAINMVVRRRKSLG

[7] = molecular target: FRMPD2_1, Q68DX3
Sequence of FRMPD2_1, Q68DX3 (Q68DX3 770-861): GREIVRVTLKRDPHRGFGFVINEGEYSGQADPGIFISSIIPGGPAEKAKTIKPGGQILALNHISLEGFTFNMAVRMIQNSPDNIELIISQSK

[8] = molecular target: FRMPD3, Q5JV73
Sequence of FRMPD3, Q5JV73 (Q5JV73 12-100): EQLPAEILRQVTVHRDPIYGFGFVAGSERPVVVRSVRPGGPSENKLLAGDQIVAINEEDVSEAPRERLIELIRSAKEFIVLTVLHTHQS

[9] = molecular target: GIPC2, Q8TF65
Sequence of GIPC2, Q8TF65 (Q8TF65 112-203): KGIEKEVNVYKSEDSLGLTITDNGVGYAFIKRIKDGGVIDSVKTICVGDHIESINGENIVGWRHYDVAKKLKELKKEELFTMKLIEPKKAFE

[10] = molecular target: T4, GRIP1_3, Q9Y3R0
T4 sequence (Q9Y3R0 247-346, limits assumed, looked up): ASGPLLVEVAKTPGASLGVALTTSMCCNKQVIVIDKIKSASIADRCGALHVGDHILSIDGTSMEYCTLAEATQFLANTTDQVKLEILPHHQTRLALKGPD

[11] = molecular target: GRIP2_7, Q9C0E4
Sequence of GRIP2_7, Q9C0E4 (Q9C0E4 934-1023): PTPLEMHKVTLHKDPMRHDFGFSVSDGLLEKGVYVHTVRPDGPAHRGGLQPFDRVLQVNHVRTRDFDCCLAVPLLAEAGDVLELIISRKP

[12] = molecular target: Inadl_5, Q8NI35
Sequence of Inadl_5, Q8NI35 (Q8NI35 673-780): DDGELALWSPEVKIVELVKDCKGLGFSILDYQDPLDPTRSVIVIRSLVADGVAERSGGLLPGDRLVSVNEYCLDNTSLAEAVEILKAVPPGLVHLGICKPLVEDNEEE

[13] = molecular target: T5, LIN7C, Q9NUP9
T5 sequence (Q9NUP9 88-185, limits assumed, looked up): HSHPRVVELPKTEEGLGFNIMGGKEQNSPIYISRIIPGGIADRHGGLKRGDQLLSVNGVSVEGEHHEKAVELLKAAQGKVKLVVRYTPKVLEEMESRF

[14] = molecular target: T6, LNX2_3, Q8N448
T6 sequence (Q8N448 463-564, limits assumed, looked up): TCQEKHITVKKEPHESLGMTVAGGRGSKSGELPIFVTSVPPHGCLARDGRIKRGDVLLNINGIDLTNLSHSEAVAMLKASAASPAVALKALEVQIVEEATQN

[15] = molecular target: MAGI1_2, Q96QZ7
Sequence of MAGI1_2, Q96QZ7 (Q96QZ7 456-580): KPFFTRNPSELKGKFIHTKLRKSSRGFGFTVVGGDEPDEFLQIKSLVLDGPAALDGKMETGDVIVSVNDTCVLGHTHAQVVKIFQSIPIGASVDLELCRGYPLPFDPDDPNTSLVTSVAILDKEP

[16] = molecular target: MAGI2_2, Q86UL8
Sequence of MAGI2_2, Q86UL8 (Q86UL8 410-522): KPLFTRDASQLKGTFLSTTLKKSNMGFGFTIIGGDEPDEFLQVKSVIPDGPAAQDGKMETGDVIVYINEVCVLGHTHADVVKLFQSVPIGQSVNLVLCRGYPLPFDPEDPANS

[17] = molecular target: MAGI2_4, Q86UL8
Sequence of MAGI2_4, Q86UL8 (Q86UL8 772-865): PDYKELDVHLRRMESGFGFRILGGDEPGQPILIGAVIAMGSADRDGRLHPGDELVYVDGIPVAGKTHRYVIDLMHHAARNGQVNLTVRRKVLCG

[18] = molecular target: MAST1, Q9Y2H9
Sequence of MAST1, Q9Y2H9 (Q9Y2H9 962-1065): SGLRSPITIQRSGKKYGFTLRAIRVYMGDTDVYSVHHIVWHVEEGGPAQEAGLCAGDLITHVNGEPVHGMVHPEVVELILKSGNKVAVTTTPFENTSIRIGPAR

[19] = molecular target: T7, MPP2, Q14168
T7 sequence (Q14168 180-250, limits assumed, looked up): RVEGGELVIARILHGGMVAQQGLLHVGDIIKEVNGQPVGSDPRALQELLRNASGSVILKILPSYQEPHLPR

[20] = molecular target: T8, PARD3B_1, Q8TEW8
T8 sequence (Q8TEW8 196-299, limits assumed, looked up): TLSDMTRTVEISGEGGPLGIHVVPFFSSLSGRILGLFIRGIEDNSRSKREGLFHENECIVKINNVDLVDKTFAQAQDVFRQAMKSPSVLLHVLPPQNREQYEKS

[21] = molecular target: T9, RADIL, Q96JH8
T9 sequence (Q96JH8 971-1071, limits assumed, looked up): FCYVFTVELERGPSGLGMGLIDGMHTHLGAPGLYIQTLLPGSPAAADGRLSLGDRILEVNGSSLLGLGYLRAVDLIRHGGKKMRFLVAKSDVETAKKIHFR

[22] = molecular target: T10, SIPA1L2, Q9P2F8
T10 sequence (Q9P2F8 945-1036, limits assumed, looked up): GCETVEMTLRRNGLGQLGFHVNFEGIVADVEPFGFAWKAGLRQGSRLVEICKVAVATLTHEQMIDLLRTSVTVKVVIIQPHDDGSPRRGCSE

[23] = molecular target: T11, SNTG2, Q9NY99
T11 sequence (Q9NY99 68-166, limits assumed, looked up): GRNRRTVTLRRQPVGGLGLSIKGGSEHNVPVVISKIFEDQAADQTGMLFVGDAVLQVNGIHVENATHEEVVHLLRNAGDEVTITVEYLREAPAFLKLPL

[24] = molecular target: TJP1_2, Q07157
Sequence of TJP1_2, Q07157 (Q07157 181-274): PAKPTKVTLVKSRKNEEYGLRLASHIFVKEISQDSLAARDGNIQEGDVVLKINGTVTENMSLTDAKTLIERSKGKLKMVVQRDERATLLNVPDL

[25] = molecular target: TJP2_1, Q9UDY2
Sequence of TJP2_1, Q9UDY2 (Q9UDY2 24-128): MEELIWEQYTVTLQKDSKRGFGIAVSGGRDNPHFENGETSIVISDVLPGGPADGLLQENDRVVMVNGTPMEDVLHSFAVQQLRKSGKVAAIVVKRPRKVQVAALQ

[26] = molecular target: T12, TJP3_3, O95049
T12 sequence (O95049 375-456, limits assumed, looked up): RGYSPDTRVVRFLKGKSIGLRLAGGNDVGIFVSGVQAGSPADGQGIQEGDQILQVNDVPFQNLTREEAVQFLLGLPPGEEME

[27] = plain residues with an end cap or a label only (N-terminal biotin on a linker: ado-ado)
[28] = plain residues with an end cap or a label only (N-terminal biotin on a linker: (peg)3)

In the case of AEASVACSLC [PTGIR, P43119], the pKd [1, 27] is reported as “below the threshold”, the pKd [2, 27] is reported as “below the threshold” and the pKd [3, 27] is reported as “below the threshold”. For the same binder, the pKd [4, 27] was “below the threshold”, the pKd [5, 27] was “below the threshold” and the pKd [6, 27] was “below the threshold”. For the same binder, the pKd [7, 27] was “below the threshold”, the pKd [8, 27] was “below the threshold” and the pKd [9, 27] was 3.75. For the same binder, the pKd [10, 27] was “below the threshold”, the pKd [11, 27] was “below the threshold” and the pKd [12, 27] was “below the threshold”. The pKd [13, 27] was “below the threshold”, the pKd [14, 27] was “below the threshold” and the pKd [15, 27] was “below the threshold”. The pKd [16, 27] was “below the threshold”, the pKd [17, 27] was 3.72 and the pKd [18, 27] was “below the threshold”. The pKd [19, 27] was “below the threshold”, the pKd [20, 27] was “below the threshold” and the pKd [21, 27] was 3.94. The pKd [22, 27] was “below the threshold”, the pKd [23, 27] was “below the threshold” and the pKd [24, 27] was “below the threshold”. For the same binder, the pKd [25, 27] was “below the threshold” and the pKd [26, 27] was “below the threshold”.

With RRRRSQSRESQC [HBV-HBc, P03193] the pKd [1, 28] was “below the threshold”, the pKd [2, 28] was “below the threshold” and the pKd [3, 28] was 3.92. For the same binder, the pKd [4, 28] was “below the threshold”, the pKd [5, 28] was 4.58 and the pKd [6, 28] was “below the threshold”. The pKd [7, 28] was “below the threshold”, the pKd [8, 28] was “below the threshold” and the pKd [9, 28] was 4.39. The pKd [10, 28] was “below the threshold”, the pKd [11, 28] was “below the threshold” and the pKd [12, 28] was “below the threshold”. The pKd [13, 28] was 3.66, the pKd [14, 28] was “below the threshold” and the pKd [15, 28] was 4.07. The pKd [16, 28] was 4.4, the pKd [17, 28] was “below the threshold” and the pKd [18, 28] was 3.92. The pKd [19, 28] was “below the threshold”, the pKd [20, 28] was “below the threshold” and the pKd [21, 28] was “below the threshold”. The pKd [22, 28] was “below the threshold”, the pKd [23, 28] was 4.21 and the pKd [24, 28] was “below the threshold”. For the same binder, the pKd [25, 28] was “below the threshold” and the pKd [26, 28] was “below the threshold”.

In the case of DRIQSCLSDA [SBF1, O95248], the pKd [1, 27] is reported as “below the threshold”, the pKd [2, 27] is reported as “below the threshold” and the pKd [3, 27] is reported as “below the threshold”. For the same binder, the pKd [4, 27] was “below the threshold”, the pKd [5, 27] was “below the threshold” and the pKd [6, 27] was “below the threshold”. For the same binder, the pKd [7, 27] was “below the threshold”, the pKd [8, 27] was “below the threshold” and the pKd [9, 27] was “below the threshold”. The pKd [10, 27] was “below the threshold”, the pKd [11, 27] was “below the threshold” and the pKd [12, 27] was “below the threshold”. The pKd [13, 27] was 3.84, the pKd [14, 27] was “below the threshold” and the pKd [15, 27] was “below the threshold”. For the same binder, the pKd [16, 27] was “below the threshold”, the pKd [17, 27] was 3.7 and the pKd [18, 27] was 3.62. The pKd [19, 27] was “below the threshold”, the pKd [20, 27] was “below the threshold” and the pKd [21, 27] was “below the threshold”. The pKd [22, 27] was “below the threshold”, the pKd [23, 27] was “below the threshold” and the pKd [24, 27] was “below the threshold”. The pKd [25, 27] was “below the threshold” and the pKd [26, 27] was “below the threshold”.
